# ± gives the uncertainty stated by the source.
# Experiment: abundance fitness (aPCA) (normalised: wild type 0, dead -1); higher = more abundant; growth selection in yeast, the domain comes from the species named
# Conditions: Homo sapiens
row,Substance,abundance fitness
1,"Telomeric repeat-binding factor 2 A513T, Q15554",0.25 ± 0.098
2,"Telomeric repeat-binding factor 2 A514R, Q15554",-0.428 ± 0.11
3,"Telomeric repeat-binding factor 2 E509V, Q15554",-0.353 ± 0.076
4,"Telomeric repeat-binding factor 2 I529L, Q15554",-0.213 ± 0.079
5,"Telomeric repeat-binding factor 2 K491R, Q15554",-0.21 ± 0.065
6,"Telomeric repeat-binding factor 2 K517Q, Q15554",-0.035 ± 0.044
7,"Telomeric repeat-binding factor 2 N518H, Q15554",-0.227 ± 0.068
8,"Telomeric repeat-binding factor 2 N523D, Q15554",-0.199 ± 0.061
9,"Telomeric repeat-binding factor 2 P520D, Q15554",-0.564 ± 0.055
10,"Telomeric repeat-binding factor 2 Q490K, Q15554",-0.247 ± 0.21
11,"Telomeric repeat-binding factor 2 S497D, Q15554",0.392 ± 0.099
12,"Telomeric repeat-binding factor 2 S516L, Q15554",0.222 ± 0.087
13,"Telomeric repeat-binding factor 2 V522R, Q15554",0.031 ± 0.058
14,"Telomeric repeat-binding factor 2 W499Q, Q15554",-0.018 ± 0.095
15,"Telomeric repeat-binding factor 2 Y507F, Q15554",-0.559 ± 0.17

# — the Human Domainome abundance scans (Beltran et al. 2025)
